Source: patent US9902783B2, “Antibodies and pharmaceutical compositions containing same useful for inhibiting activity of metalloproteins” (Yeda Research and Development Co. Ltd., priority 2007, dated 2018)

Legend:
[1] = target: T1, MMP-2 catalytic domain (MMP-2cat) (Mus musculus, UniProt P33434); assay: immuno affinity pull down of MMP-2 catalytic domain; assay type: binding; conditions: SDS-PAGE
T1 construct: NP_032636.1; made in house; host or cells: BL-21 cells (E. coli)
Protocol: FIGS. 3A-3C are western blot images showing the ability of mouse IgG-Agarose immobilized mAbs to pull down recombinant MMP-2 catalytic domain (MMP-2cat) or Pro-MMP-2 and Pro-MMP-9 from solution. Antibodies used for each experiment are 6C6, 13E11, and 13E15. FIG. 3A—MMP-2cat (2 μg) was incubated with anti-mouse IgG-Agarose (cntl, lane1) or anti CoTCPP, ZnTCPP and Imisdp mAb (10 μg)-anti-mouse IgG-Agarose for 2 hr at 20° C., immunoprecipitates (lane 2, 3, 5) were centrifuged and washed three times, separated on SDS/PAGE gel and visualized by Coomassie-staining. […]
FIGS. 11A-11D are photographs and models illustrating that 6C6 binds only the active conformation of MMP9 and MMP2. […] FIGS. 11B,C: 6C6 mAb immobilized to protein A beads was analyzed for its ability to pull down ProMMP2, ProMMP9, or MMP2 catalytic fragment (lacking the hemopexin and pro domains) from solution. […]
MAbs (10 μg) were incubated with anti mouse IgG Agarose beads (Sigma) overnight at 4° C. in PBS. […] The proteins that remained bound to the beads were eluted with SDS sample buffer, fractionated by SDS-PAGE, and detected by staining with Coomassie blue.

Pro-MMP-9 = Pro-MMP-9 (Homo sapiens, UniProt P14780); assay type: binding
Pro-MMP-9, sequence (P14780 20-707 limits assumed): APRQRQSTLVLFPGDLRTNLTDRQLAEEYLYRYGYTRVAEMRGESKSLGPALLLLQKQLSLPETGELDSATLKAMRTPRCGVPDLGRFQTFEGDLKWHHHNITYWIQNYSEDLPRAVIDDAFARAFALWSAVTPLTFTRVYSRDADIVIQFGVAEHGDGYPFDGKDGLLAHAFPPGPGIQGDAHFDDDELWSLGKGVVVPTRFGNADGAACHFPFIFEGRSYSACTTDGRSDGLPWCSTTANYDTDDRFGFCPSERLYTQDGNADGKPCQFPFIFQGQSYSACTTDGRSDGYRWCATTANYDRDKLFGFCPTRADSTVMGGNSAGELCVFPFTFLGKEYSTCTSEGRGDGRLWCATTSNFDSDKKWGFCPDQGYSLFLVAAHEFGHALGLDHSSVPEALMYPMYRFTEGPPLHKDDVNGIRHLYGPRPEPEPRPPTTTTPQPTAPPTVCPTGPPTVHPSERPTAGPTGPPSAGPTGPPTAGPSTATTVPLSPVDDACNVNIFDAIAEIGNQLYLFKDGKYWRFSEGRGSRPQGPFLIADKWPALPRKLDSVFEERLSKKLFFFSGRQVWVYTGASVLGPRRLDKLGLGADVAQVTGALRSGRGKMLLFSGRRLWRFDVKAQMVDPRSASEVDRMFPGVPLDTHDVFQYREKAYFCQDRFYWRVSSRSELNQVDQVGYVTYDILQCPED

MMP9 = MMP9 (Homo sapiens, UniProt P14780); assay: cleavage of mAb by MMP-9 on overnight incubation; conditions: overnight incubations with 30 μM MMP9
MMP9, sequence (P14780 94-707): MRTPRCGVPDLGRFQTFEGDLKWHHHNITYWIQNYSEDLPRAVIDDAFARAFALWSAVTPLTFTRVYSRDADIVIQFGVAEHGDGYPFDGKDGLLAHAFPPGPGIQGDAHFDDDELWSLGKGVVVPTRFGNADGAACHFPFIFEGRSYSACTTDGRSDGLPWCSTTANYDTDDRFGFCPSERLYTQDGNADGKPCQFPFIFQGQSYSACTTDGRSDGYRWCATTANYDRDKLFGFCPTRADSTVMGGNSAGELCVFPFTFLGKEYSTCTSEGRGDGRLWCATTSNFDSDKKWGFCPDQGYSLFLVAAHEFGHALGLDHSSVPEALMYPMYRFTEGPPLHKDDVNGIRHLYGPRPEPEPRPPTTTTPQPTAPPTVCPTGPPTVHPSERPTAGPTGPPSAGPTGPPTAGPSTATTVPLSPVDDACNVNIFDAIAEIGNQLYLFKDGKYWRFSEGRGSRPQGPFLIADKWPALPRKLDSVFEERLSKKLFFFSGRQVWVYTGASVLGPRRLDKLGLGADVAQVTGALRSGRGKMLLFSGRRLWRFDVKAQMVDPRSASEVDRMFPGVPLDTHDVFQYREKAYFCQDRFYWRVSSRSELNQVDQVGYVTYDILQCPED

MT1 catalytic domain = assay: immuno affinity binding assay, MT1-MMP; conditions: purified enzyme
Protocol: (§1) MAbs (10 μg) were incubated with anti mouse IgG Agarose beads (Sigma) overnight at 4° C. in PBS. After washing unbound antibody, purified Pro-MMP-2, Pro-MMP-9 MMP-2 catalytic domain, MT1 catalytic domain or TACE (2 μg), were added following 2 h incubation at RT. The beads were collected by centrifugation and washed three times with PBS. The proteins that remained bound to the beads were eluted with SDS sample buffer, fractionated by SDS-PAGE, and detected by staining with Coomassie blue.

TACE = TACE (Homo sapiens, UniProt P78536); assay: immuno affinity binding assay, TACE; conditions: purified enzyme
TACE, sequence (P78536 215-824, species assumed): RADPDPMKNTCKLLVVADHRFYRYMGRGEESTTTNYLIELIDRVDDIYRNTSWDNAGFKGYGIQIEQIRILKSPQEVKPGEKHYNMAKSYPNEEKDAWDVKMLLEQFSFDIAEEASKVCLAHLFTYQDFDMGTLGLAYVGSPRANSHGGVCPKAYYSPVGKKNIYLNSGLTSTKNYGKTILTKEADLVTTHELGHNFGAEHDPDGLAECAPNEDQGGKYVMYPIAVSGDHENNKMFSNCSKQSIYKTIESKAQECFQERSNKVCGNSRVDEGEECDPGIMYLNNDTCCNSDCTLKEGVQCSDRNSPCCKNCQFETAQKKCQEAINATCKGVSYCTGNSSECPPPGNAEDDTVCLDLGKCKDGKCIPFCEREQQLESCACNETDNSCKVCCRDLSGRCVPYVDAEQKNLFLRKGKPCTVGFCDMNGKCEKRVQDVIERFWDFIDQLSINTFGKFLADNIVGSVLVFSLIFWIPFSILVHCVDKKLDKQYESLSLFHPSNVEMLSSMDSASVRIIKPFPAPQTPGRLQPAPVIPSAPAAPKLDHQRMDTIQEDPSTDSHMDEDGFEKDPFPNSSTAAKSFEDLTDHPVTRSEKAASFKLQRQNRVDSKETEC
Protocol: as §1

[2] = target: T2, Heme group within Myoglobin (Homo sapiens, UniProt P02144); assay: cross reactivity, competitive ELISA and immuno affinity assay, Myoglobin; assay type: binding
T2 sequence (P02144 1-154): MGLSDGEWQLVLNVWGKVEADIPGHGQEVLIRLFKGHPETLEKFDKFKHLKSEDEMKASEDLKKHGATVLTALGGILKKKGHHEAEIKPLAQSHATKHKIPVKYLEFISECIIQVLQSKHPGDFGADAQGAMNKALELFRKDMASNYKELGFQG
Source text: (§2) The selectivity of anti CoTCPP and anti Imisdp was further challenged, by testing their cross reactivity with non related zinc dependent enzymes—Carbonic Anhydrase (CA) and brockii alcohol dehydrogenase (TbADH). Similar to active MMPs CA contains a zinc ion that is tetrahedraly coordinated to three histidine residues and a water molecule, TbADH contains a catalytic zinc ion that is tetraheadrally coordinated to four different amino acid residues, histidine, cysteine, aspartate and glutamate. […] Anti CoTCPP mAb was also tested for its cross reactivity with related physiological porphyrins such as the Heme group within Myoglobin and Hemoglobin and vitamin.

[3] = target: Heme group within Hemoglobin (Homo sapiens, UniProt P68871+P69905); assay: cross reactivity, competitive ELISA and immuno affinity assay, Hemoglobin; assay type: binding
Heme group within Hemoglobin, sequence (P69905 2-142 limits assumed): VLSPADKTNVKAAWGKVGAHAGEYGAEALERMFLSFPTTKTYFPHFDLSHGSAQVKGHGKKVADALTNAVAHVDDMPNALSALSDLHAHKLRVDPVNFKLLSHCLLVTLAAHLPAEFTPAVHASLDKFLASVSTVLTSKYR
Heme group within Hemoglobin, sequence (P68871 2-147 limits assumed): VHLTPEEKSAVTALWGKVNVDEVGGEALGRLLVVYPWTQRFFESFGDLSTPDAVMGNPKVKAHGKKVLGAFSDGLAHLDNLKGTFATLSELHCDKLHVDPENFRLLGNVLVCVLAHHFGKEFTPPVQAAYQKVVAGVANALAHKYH
Source text: as §2

[4] = cross reactivity, competitive ELISA and immuno affinity assay, vitamin; assay type: binding
Source text: as §2
Carbonic anhydrase, and alcohol dehydrogenase all have rather buried active sites, similarly, the porphyrin moiety in Myoglobin and Hemoglobin is not exposed. Vitamin B 12 contains metal at the center of planer […] structure yet the axial ligands may interfere with the binding of the mAb.

T1 sequence (P33434 110-467): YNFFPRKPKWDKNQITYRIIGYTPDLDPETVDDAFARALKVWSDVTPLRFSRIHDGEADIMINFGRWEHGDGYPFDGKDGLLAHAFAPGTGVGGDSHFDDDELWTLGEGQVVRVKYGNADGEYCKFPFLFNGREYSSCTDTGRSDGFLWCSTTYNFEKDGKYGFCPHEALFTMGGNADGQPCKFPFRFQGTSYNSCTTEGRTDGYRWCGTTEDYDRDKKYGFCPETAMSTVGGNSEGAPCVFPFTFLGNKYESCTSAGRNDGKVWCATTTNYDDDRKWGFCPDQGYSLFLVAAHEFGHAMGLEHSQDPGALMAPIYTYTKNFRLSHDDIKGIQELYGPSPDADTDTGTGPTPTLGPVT

| Molecule | binding to MMP-2 catalytic domain [1] | binding to Pro-MMP-9 (Pro-MMP-9) | cleavage of mAb by MMP-9 (MMP9) | binding to MT1-MMP (MT1 catalytic domain) | binding to TACE (TACE) | cross reactivity with Myoglobin [2] | cross reactivity with Hemoglobin [3] | cross reactivity with vitamin [4] |
| --- | --- | --- | --- | --- | --- | --- | --- | --- |
| 6C6: monoclonal antibody, IgG2a, raised against the hapten Imisdp; MMP-2 and MMP-9 inhibitory; SEQ ID NO: 1 (protein, 6c6 mAb light chain) CMETTQTPLSLPVSLGDQASISCRSSQSIVHSNGNTFLEWYLQKPGQSPKLLIYKVSNCRFSGVPDRFSGSGSGTDFTLKISRVEAEDLGVYYCFQASHVPPTFGGG | formation of a specific complex | did not bind | not cleaved | – | – | – | – | – |
| 13E11: monoclonal antibody, IgG2b, raised against the hapten CoTCPP (antibody, V domains shown, 13E11 mAb heavy chain; 13E11 mAb light chain, monoclonal antibody, IgG2b, raised against the hapten CoTCPP) VH: EGGGLVQPGGSRKLSCAASGFTFTSFGMHWVRQAPEKGLEWVAYISSGNEIIYYADTVKGRFTISRDNPKNTLFLQMTSLRSEDTAMYYCARNYYRYGFYVMDYWGQG VL: EIVVTQSPAILSASPGEKVTMTCRASSSVSYMHWYQQKPGSSPKPWIYATSNELASGVPARFSGSGSGTSYSLTISRVEAEDAATYYCQQWISNPLTFGAG | – | – | – | no binding was detected | no binding was detected | No cross was detected | No cross was detected | No cross was detected |
